Among the data in patent publication US20260209363A1 (Chugai, published 2026) are Kd, koff and kon values, retold here.

The target of experiment [1] is T1, human soluble IL-6R (human, UniProt P08887 20-357, limits assumed).
T1 construct: Soluble form; also called sIL6R; Human IL-6R
T1 sequence (looked up): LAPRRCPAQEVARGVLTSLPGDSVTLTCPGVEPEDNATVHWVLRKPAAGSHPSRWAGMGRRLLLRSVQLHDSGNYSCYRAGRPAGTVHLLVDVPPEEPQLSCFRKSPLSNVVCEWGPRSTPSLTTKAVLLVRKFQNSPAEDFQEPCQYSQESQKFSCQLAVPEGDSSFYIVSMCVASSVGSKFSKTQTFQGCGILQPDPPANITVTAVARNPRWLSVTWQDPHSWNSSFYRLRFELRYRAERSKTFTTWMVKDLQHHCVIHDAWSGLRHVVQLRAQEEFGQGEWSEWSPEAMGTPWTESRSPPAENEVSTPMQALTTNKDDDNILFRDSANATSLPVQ
As to the kind of experiment: in vivo KD in mouse plasma (albumin present), from total antibody, free and bound sIL6R 5 min after sIL6R; antibody 1 mg/kg IV. As to the method:
Next, free sIL6R in plasma was measured. The concentration of free sIL6R in plasma was measured on a fully automated ELISA system (Gyrolab xP workstation). First, sIL6R prepared at 23.4, 46.9, 93.8, 188, 375, 750, and 1500 ng/mL using a Protein-Free (PBS) Blocking Buffer (Thermo Scientific) was used as solutions for preparing the calibration curve. Mouse plasma samples were used in the measurements without diluting them. A solution of biotin-labeled H54 diluted to 10 micro g/mL using a Protein-Free (PBS) Blocking Buffer was used as a solution of the sIL6R-capturing molecule. Alexa Fluor (registered trademark) 647-labeled anti-human IL-6R antibody (R&D Systems) diluted to 1 micro g/mL using a Protein-Free (PBS) Blocking Buffer was used as a solution of the human IL-6R-detection molecule. PBS (pH 7.4) containing 0.05% TWEEN was used as a washing solution. The calibration curve solutions, mouse plasma samples, sIL6R-capturing molecule solution, sIL6R-detection molecule solution, and the washing solution were placed onto a PCR plate, and then the PCR plate was sealed with a plate sealer. After the PCR plate and the Bioaffy 200 disc were placed in the Gyrolab xP workstation, measurements were taken. Using the data processed by the Gyros Evaluater 3.6.2.30 software and the calibration curve concentrations, the concentration of free sIL6R in plasma was calculated by logistic regression using the XLfit 5.5.0.5 software.
Additionally, bound sIL6R in plasma was measured. The concentration of bound sIL6R in plasma was measured on an electrospray ionization mass spectrometer connected to a high-performance liquid chromatography (LC/ESI-MS/MS). First, H54//IC17 and sIL6R were mixed, and solutions for preparing the calibration curve of bound sIL6R were prepared at theoretical plasma concentrations of 0.0468, 0.467, 4.60, and 20.1 nmol/mL. The solutions for preparing the calibration curve and 1 or 2 micro L of a plasma sample were added to 75 or 150 micro g of magnetic beads (Magnosphere MS300/Carboxyl, JSR) to which anti-delta GK antibodies were solid-phased, and this was shaken at 25 degrees C. for one hour.

The target of experiment [2] is T1, human soluble IL-6R. Kind of experiment: SPR (Biacore T200), antibody captured on Protein G, human IL-6R as analyte, 37 degrees C, no albumin. The procedure: Binding activities of the produced albumin switch molecules against human IL-6R were evaluated using Biacore T200 (Cytiva). As the running buffer, 50 mM Na Phosphate (pH 7.4), 150 mM NaCl, 0.05% Tween20 was used, and the evaluation was performed at 37 degrees C. First, Protein G (CALBIOCHEM) was used as a ligand-capturing molecule. Protein G (CALBIOCHEM) was solid-phased on a Series S Sensor Chip CM4 (Cytiva) using an Amine Coupling Kit (Cytiva). Antibody solution prepared using the running buffer was allowed to interact with this CM4 sensor chip to capture approximately 200 RU of the antibody. Human IL-6R used in the present measurement was prepared by an approach described in WO2018097307 (Example 3-2). Human IL-6R was diluted to 0, 100, and 400 nM with the running buffer, and allowed to bind to the captured antibody. The chip was regenerated using 3 M MgCl₂, and measurements were performed by repeatedly capturing the antibodies. Dissociation constant (KD) of each antibody for human IL-6R was calculated using Biacore T200 Evaluation Software 2.0. Specifically, the association rate constant ka (L/mol/s) and the dissociation rate constant kd (1/s) were calculated by global fitting of the sensorgrams obtained by measurement with the 1:1 Langmuir binding model, and the dissociation constant KD (mol/L) was calculated from these values.
For orientation: Surface plasmon resonance follows binding to a sensor surface in real time, without labels.

A further experiment has as its target T2, Mouse MOG (R&D system) (mouse, UniProt Q61885 29-156, limits assumed).
T2 construct: also called mouse soluble MOG; soluble MOG
T2 sequence (looked up): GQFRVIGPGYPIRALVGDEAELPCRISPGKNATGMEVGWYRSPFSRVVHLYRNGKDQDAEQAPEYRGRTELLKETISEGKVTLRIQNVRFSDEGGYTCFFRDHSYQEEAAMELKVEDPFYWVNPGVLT
As to the kind of experiment: SPR (Biacore T200), antibody captured by anti-human Fc antibody, mouse MOG as analyte, 25 degrees C, no albumin. As to the method: Binding activities of the antibodies produced in Example 10 against mouse MOG were assessed using Biacore T200 (Cytiva).
As the running buffer, 50 mM Na Phosphate (pH 7.4), 150 mM NaCl, 0.05% Tween 20, and 0.005% NaN₃ was used, and the assessment was performed at 25 degrees C. First, anti-human Fc antibody (Cytiva) was used as a ligand-capturing molecule. Anti-human Fc antibody (Cytiva) was solid-phased on a Series S Sensor Chip CM4 (Cytiva) using an Amine Coupling Kit (Cytiva). Antibody solutions prepared using the running buffer was allowed to interact with this CM4 sensor chip to capture approximately 480 RU of the antibody. Mouse MOG (R&D system) was diluted to 0, 10, 40, 160, and 640 nM with the running buffer, and then bound to the captured antibody. The chip was regenerated using 3 M MgCl₂, and measurements were performed by repeatedly capturing antibodies. Dissociation constant (KD) of the respective antibodies for mouse MOG was calculated using Biacore T200 Evaluation Software 2.0. Specifically, the association rate constant ka (L/mol/s) and the dissociation rate constant kd (1/s) were calculated by global fitting of the sensorgrams obtained by measurement with the 1:1 Langmuir binding model, and the dissociation constant KD (mol/L) was calculated from these values.

Another experiment addresses T3, mouse albumin (mouse, UniProt P07724 25-608).
T3 construct: also called recombinant mouse Albumin; mouse serum albumin
Kind of experiment: SPR (Biacore T200), antibody captured by anti-human Fc antibody, mouse albumin as analyte, 25 degrees C. As to the method: Binding activities of the produced antibodies against mouse albumin were evaluated using Biacore T200 (Cytiva).
As the running buffer, 50 mM Na Phosphate (pH 7.4), 150 mM NaCl, 0.05% Tween20 was used, and the evaluation was performed at 25 degrees C. First, anti-human Fc antibody (Cytiva) was used as a ligand-capturing molecule. Anti-human Fc antibody (Cytiva) was solid-phased on a Series S Sensor Chip CM4 (Cytiva) using an Amine Coupling Kit (Cytiva). Antibody solution prepared using the running buffer was allowed to interact with this CM4 sensor chip to capture approximately 120 RU of the antibody. Mouse albumin (Bioscience) was diluted to 0 and 300 nM with the running buffer and allowed to bind to the captured antibody. The chip was regenerated using 3 M MgCl₂, and measurements were performed by repeatedly capturing the antibodies. Dissociation constant (KD) of each antibody for mouse albumin was calculated using Biacore T200 Evaluation Software 2.0. Specifically, the association rate constant ka (L/mol/s) and the dissociation rate constant kd (1/s) were calculated by global fitting of the sensorgrams obtained by measurement with the 1:1 Langmuir binding model, and the dissociation constant KD (mol/L) was calculated from these values.

B1: H54//IC17 (bispecific antibody, human IgG1, kappa)
heavy 1: QVQLQESGPGLVKPSETLSLTCAVSGYSISDDQAWSWVRQPPGEGLEWIGYISYSGITNYNPSLKGRVTISRDTSKNQFSLKLSSVTAADTAAYYCARSLARTTAMDYWGEGTLVTVSSASTKGPSVFPLAPSSKSTSGGTAALGCLVEDYFPEPVTVSWNSGALTSGVHTFPAVLQSSGLYSLSSVVTVPSSSLGTQTYICNVNHKPSNTKVDERVEPKSCDKTHTCPPCPAPELRRGPSVFLFPPKPKDTLMISRTPEVTCVVVDVSHEDPEVKFNWYVDGVEVHNAKTKPREEQYNSTYRVVSVLTVLHQDWLNGKEYKCKVSNKALPAPIEKTISKAKGQPREPQVCTLPPSREEMTKNQVSLSCAVKGFYPSDIAVEWESNGQPENNYKTTPPVLDSDGSFFLVSKLTVDKSRWQQGNVFSCSVMHEALHNHYTQKSLSLSP
light 1: DIQMTQSPSSLSASVGDSVTITCQASQDISSYLNWYQQKPGKAPELLIYYGSELHSGVPSRFSGSGSGTDFTFTISSLEAEDAATYYCQQGNSLPYTFGQGTKVEIERTVAAPSVFIFPPSDRKLKSGTASVVCLLNNFYPREAKVQWKVDNALQSGNSQESVTEQDSKDSTYSLSSTLTLSKADYEKHKVYACEVTHQGLSSPVTKSFNRGEC
heavy 2: not shown
light 2: QVQLQQSGPQLVRPGASVKISCKASGYSFTSYWMHWVNQRPGQGLEWIGMIDPSYSETRLNQKFKDKATLTVDKSSSTAYMQLSSPTSEDSAVYYCALYGNYFDYWGQGTTLTVSSASVAAPSVFIFPPSDEQLKSGTASVVCLLNNFYPREAKVQWKVDNALQSGNSQESVTEQDSKDSTYSLSSTLTLSKADYEKHKVYACEVTHQGLSSPVTKSFNRGEC
notes: Heavy chain constant regions lack the C-terminal glycine and lysine; also called anti-human IL-6R/KLH bispecific antibody
Regarding B1, in the experiment with human soluble IL-6R [1], the Kd (as a rule, a measure of binding affinity in units of concentration) came to 1.3 nM. Also, in the experiment with human soluble IL-6R [2], the Kd was 3.41 nM; the koff (commonly a measure of how fast the partners let go of each other) came to 0.00141 s⁻¹; the kon – broadly, the rate constant with which the complex forms – amounted to 412000 M⁻¹ s⁻¹.

B2: MOG//IC17 (bispecific antibody, human IgG1, kappa)
heavy 1: RVTLRESGPTLVKPTQTLTLTCTFSGFSLSTSGVGVGWIRQPPGKALEWLALIFWDDDSHYSPSLKSRLTITKDTSKNQVVLTMTNMDPVDTATYYCARYYFGSGSYFPSYWYFDLWGRGTLVTVSSASTKGPSVFPLAPSSKSTSGGTAALGCLVEDYFPEPVTVSWNSGALTSGVHTFPAVLQSSGLYSLSSVVTVPSSSLGTQTYICNVNHKPSNTKVDERVEPKSCDKTHTCPPCPAPELRRGPSVFLFPPKPKDTLMISRTPEVTCVVVDVSHEDPEVKFNWYVDGVEVHNAKTKPREEQYNSTYRVVSVLTVLHQDWLNGKEYKCKVSNKALPAPIEKTISKAKGQPREPQVCTLPPSREEMTKNQVSLSCAVKGFYPSDIAVEWESNGQPENNYKTTPPVLDSDGSFFLVSKLTVDKSRWQQGNVFSCSVMHEALHNHYTQKSLSLSP
light 1: not shown
heavy 2: not shown
light 2: QVQLQQSGPQLVRPGASVKISCKASGYSFTSYWMHWVNQRPGQGLEWIGMIDPSYSETRLNQKFKDKATLTVDKSSSTAYMQLSSPTSEDSAVYYCALYGNYFDYWGQGTTLTVSSASVAAPSVFIFPPSDEQLKSGTASVVCLLNNFYPREAKVQWKVDNALQSGNSQESVTEQDSKDSTYSLSSTLTLSKADYEKHKVYACEVTHQGLSSPVTKSFNRGEC
notes: also called MOG307//IC17; IC17//MOG307
On to B2, for which, in the experiment with Mouse MOG (R&D system), the affinity, expressed as Kd, was 0.452 nM; the koff was 6.99e-05 s⁻¹; the kon worked out at 155000 M⁻¹ s⁻¹.

B3: ABD094(H)-H54//IC17 (bispecific antibody, human IgG1, kappa)
heavy 1: LAEAKEAANAELDSYGVSDFYKRLIDKAKTVEGVEALKDAILAALPQVQLQESGPGLVKPSETLSLTCAVSGYSISDDQAWSWVRQPPGEGLEWIGYISYSGITNYNPSLKGRVTISRDTSKNQFSLKLSSVTAADTAAYYCARSLARTTAMDYWGEGTLVTVSSASTKGPSVFPLAPSSKSTSGGTAALGCLVEDYFPEPVTVSWNSGALTSGVHTFPAVLQSSGLYSLSSVVTVPSSSLGTQTYICNVNHKPSNTKVDERVEPKSCDKTHTCPPCPAPELRRGPSVFLFPPKPKDTLMISRTPEVTCVVVDVSHEDPEVKFNWYVDGVEVHNAKTKPREEQYNSTYRVVSVLTVLHQDWLNGKEYKCKVSNKALPAPIEKTISKAKGQPREPQVCTLPPSREEMTKNQVSLSCAVKGFYPSDIAVEWESNGQPENNYKTTPPVLDSDGSFFLVSKLTVDKSRWQQGNVFSCSVMHEALHNHYTQKSLSLSP
light 1: DIQMTQSPSSLSASVGDSVTITCQASQDISSYLNWYQQKPGKAPELLIYYGSELHSGVPSRFSGSGSGTDFTFTISSLEAEDAATYYCQQGNSLPYTFGQGTKVEIERTVAAPSVFIFPPSDRKLKSGTASVVCLLNNFYPREAKVQWKVDNALQSGNSQESVTEQDSKDSTYSLSSTLTLSKADYEKHKVYACEVTHQGLSSPVTKSFNRGEC
heavy 2: not shown
light 2: QVQLQQSGPQLVRPGASVKISCKASGYSFTSYWMHWVNQRPGQGLEWIGMIDPSYSETRLNQKFKDKATLTVDKSSSTAYMQLSSPTSEDSAVYYCALYGNYFDYWGQGTTLTVSSASVAAPSVFIFPPSDEQLKSGTASVVCLLNNFYPREAKVQWKVDNALQSGNSQESVTEQDSKDSTYSLSSTLTLSKADYEKHKVYACEVTHQGLSSPVTKSFNRGEC
In turn, B3 came in with a Kd with human soluble IL-6R [1] of 3.6 nM. In addition, in the experiment with human soluble IL-6R [2], the Kd was 5.21 nM, the koff was found to be 0.00133 s⁻¹ and the kon came to 255000 M⁻¹ s⁻¹. In the experiment with mouse albumin, this molecule returned a Kd of 14.3 nM, a koff of 0.00103 s⁻¹ and a kon of 71800 M⁻¹ s⁻¹.
